Ends that are not written are not given here.
target: human Nav1.7 (hNav1.7) channel (Homo sapiens, UniProt Q15858); experiment: Whole-cell patch-clamp inhibition of hNav1.7 currents; format: cell-based; conditions: compared to Ca2a, WT hNav1.7 in HEK293T
Sequence (Q15858 whole entry): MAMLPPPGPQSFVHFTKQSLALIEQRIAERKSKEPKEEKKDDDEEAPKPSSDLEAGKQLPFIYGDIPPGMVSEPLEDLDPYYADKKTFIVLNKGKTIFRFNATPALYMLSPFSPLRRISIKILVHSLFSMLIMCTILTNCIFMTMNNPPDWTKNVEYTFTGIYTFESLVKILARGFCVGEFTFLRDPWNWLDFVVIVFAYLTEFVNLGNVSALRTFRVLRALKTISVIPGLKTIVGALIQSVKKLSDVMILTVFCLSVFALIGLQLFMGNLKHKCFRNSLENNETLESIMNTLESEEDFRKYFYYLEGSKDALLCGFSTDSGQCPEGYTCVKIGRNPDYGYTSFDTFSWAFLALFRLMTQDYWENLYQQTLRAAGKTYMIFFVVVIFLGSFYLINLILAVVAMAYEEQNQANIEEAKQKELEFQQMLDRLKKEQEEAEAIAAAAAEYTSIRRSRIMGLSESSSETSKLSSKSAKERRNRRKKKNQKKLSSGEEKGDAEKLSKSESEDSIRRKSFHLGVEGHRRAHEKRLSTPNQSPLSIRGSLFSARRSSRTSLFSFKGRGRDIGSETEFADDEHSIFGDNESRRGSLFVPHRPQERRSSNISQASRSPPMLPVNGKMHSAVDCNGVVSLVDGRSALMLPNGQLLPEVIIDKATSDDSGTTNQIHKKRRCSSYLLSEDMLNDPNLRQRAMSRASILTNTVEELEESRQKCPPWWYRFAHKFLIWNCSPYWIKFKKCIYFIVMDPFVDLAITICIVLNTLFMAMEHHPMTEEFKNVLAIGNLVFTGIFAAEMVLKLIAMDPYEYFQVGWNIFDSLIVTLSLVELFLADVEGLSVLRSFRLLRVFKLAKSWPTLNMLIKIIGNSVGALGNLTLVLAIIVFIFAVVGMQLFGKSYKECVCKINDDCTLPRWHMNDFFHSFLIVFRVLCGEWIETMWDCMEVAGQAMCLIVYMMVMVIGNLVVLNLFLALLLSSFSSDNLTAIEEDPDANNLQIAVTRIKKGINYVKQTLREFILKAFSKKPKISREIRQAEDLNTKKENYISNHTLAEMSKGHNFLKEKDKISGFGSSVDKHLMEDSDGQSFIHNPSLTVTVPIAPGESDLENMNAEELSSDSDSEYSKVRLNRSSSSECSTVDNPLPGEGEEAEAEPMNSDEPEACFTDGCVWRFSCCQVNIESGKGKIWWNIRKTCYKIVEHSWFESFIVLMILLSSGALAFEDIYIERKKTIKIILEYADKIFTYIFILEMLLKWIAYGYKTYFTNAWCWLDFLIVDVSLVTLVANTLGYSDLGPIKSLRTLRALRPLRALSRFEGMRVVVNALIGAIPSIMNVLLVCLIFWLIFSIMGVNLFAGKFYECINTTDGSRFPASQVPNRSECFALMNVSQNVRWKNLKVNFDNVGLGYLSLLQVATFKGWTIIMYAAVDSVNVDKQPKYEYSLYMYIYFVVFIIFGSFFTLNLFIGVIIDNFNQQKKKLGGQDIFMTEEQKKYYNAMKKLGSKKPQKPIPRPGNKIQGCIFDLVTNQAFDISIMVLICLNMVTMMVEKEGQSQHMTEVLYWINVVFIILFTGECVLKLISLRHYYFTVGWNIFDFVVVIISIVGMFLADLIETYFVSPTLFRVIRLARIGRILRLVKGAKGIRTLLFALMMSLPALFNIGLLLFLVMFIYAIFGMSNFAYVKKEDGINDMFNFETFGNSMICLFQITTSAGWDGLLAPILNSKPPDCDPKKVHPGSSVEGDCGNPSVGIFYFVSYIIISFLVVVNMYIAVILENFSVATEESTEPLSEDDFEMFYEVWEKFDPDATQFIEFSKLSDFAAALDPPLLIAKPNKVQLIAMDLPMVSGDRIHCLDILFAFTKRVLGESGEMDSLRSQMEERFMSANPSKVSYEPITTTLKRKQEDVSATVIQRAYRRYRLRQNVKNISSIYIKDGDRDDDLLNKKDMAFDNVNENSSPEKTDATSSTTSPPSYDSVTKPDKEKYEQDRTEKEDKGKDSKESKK

“K18A: K18A mutant of Ca2a (ACLGFGEKCNPSNDKCCASSSLVCSQKHKWCKYDL; ends and bridges not checked; cysteine pairing not given here) [Peptide K18A]” was tested, and the “inhibitory activity against Nav1.7 (in words)” value was “retained most of its inhibitory activity”.

same assay, conditions: ratio of mutant IC50 to WT peptide IC50, hNav1.7 in HEK293T

For “W30A: W30A mutant of Ca2a (ACLGFGEKCNPSNDKCCKSSSLVCSQKHKACKYDL; ends and bridges not checked; cysteine pairing not given here) [Peptide W30A]”, the “fold change in IC50 / affinity for Nav1.7 compared to WT Ca2a” value was 20 fold.

target: human voltage-gated sodium ion channel Nav1.7 (human); experiment: not given; conditions: not given
Sequence (Q15858 whole entry): as the sequence (Q15858 whole entry) above

Compared with ACLGFGEKCNPSNDKCCKSSSLVCSQKRKWCKYDL [Ca2a H28R], ACLGFGEKCNPSNDKCCKSSSLVCSQKHKWCKKDL [Ca2a Y33K] is higher in IC50 of inhibition of hNav1.7 currents, whole-cell patch clamp, HEK293T: 14.9 µM for the first, greater than 20 µM for the second.

ACLGFGEKCNPSNDKCCKSSSLVCSQKKKWCKYDL [Ca2a H28K] and ACLGKGEKCNPSNDKCCKSSSLVCSQKHKWCKYDL [Ca2a F5K] cannot be ordered by IC50 of inhibition of hNav1.7 currents, whole-cell patch clamp, HEK293T: greater than 20 µM for the first, greater than 20 µM for the second.

Work on ACLGFGEKCNPSNDKCCKSSSLVCSQKHKKCKYDL [Ca2a W30K] yielded an IC50 of inhibition of hNav1.7 currents, whole-cell patch clamp, HEK293T greater than 20 µM.

target: human voltage-gated sodium ion channel Nav1.7 (human); experiment: not given; conditions: not given; remark: another data set of the same source

First: ACLGFGEKCNPSNDKCCKSSSLVCSQAHKWCKYDL [Ca2a K27A]
Second: ACLGFGEKCNPSNDKCCKSSSLVCSQKHKWCAYDL [Ca2a K32A]
The IC50 of inhibition of hNav1.7 currents, whole-cell patch clamp, HEK293T of the first is lower: 4.07 µM for the first, greater than 30 µM for the second.

target: human voltage-gated sodium ion channel Nav1.7 (human); experiment: not given; conditions: not given; remark: another data set of the same source

Compared with CLGFGEKCNPSKCCKSLVCQKHKWCKY [truncated peptide T2 (from Ca2a)], CLGFGEKCNPSDKCCKSSSVCSQKHKWCKY [truncated peptide T7 (from Ca2a)] is higher in IC50 of inhibition of hNav1.7 currents, whole-cell patch clamp, HEK293T: 16.5 µM for the first, greater than 100 µM for the second.

Going from CLGFGEKCPSNDKCCSSSLVCSQKHKWCKY [truncated peptide T8 (from Ca2a)] to CLGFGEKCNPSNDCCKSSSLVCSQKHKWCKY [truncated peptide T9 (from Ca2a)], the IC50 of inhibition of hNav1.7 currents, whole-cell patch clamp, HEK293T falls from greater than 100 µM to 67.3 µM.

CLGFGEKCNPSDKCCKSSSLVCSQKHKWCKY [truncated peptide T11 (from Ca2a)] and CLGFGEKCNPSNKCCKSSSLVCSQKHKWCKY [truncated peptide T10 (from Ca2a)] are within 1.5-fold of each other in IC50 of inhibition of hNav1.7 currents, whole-cell patch clamp, HEK293T: 49.2 µM for the first, 53.5 µM for the second.

Going from CLGFGEKCNDKCCKLVCSQHKWCKY [truncated peptide T13 (from Ca2a)] to CLGFGEKCNPDCCKLVCSQKWCKY [truncated peptide T12 (from Ca2a)], the IC50 of inhibition of hNav1.7 currents, whole-cell patch clamp, HEK293T rises from 8.89 µM to greater than 50 µM.

Compared with CLGFGEKCNNDKCCKSLVCQKHKWCKY [truncated peptide T3 (from Ca2a)], CLGFGEKCNDKCCKSSSLCSQKHKWCKY [truncated peptide T5 (from Ca2a)] is higher in IC50 of inhibition of hNav1.7 currents, whole-cell patch clamp, HEK293T: 39.6 µM for the first, greater than 100 µM for the second.

First: CLGFGEKCCCKSSSLVCSQKHKWCKY [truncated peptide T1 (from Ca2a)]
Second: CLGFGEKCNDKCCKSSSCSQKHKWCKY [truncated peptide T4 (from Ca2a)]
The IC50 of inhibition of hNav1.7 currents, whole-cell patch clamp, HEK293T of the first is lower: 14.7 µM for the first, greater than 100 µM for the second.

Molecule CLGFGEKCNDKCCKSSSVCSQKHKWCKY [truncated peptide T6 (from Ca2a)] has an IC50 of inhibition of hNav1.7 currents, whole-cell patch clamp, HEK293T greater than 100 µM.
